Assay [1] has as its target T1, 4H619-bN.
T1 chain: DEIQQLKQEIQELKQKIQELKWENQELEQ
The assay can be described thus: two-hybrid library CCNG1.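 Further: natural log of median RNA to DNA barcode read ratio; higher means stronger binding.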

The target of assay [2] is T2, 4H850-bN.
T2 chain: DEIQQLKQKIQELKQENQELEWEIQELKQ
The assay can be described thus: two-hybrid library CCNG1.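 Further: natural log of median RNA to DNA barcode read ratio; higher means stronger binding.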

For assay [3], the target named is T3, 4H906-bN.
T3 chain: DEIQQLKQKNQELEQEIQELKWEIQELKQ
The assay can be described thus: two-hybrid library CCNG1.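 Further: natural log of median RNA to DNA barcode read ratio; higher means stronger binding.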

Assay [4] concerns the target T4, 4H55-AA.
T4 chain: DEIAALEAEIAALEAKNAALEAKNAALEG
Briefly: two-hybrid library CCmax.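 Further: natural log of median RNA to DNA barcode read ratio; higher means stronger binding.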 The conditions noted are these: mean of both orientations.

Assay [5] deals with T5, 4H662-AA.
T5 chain: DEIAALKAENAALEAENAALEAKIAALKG
Briefly: two-hybrid library CCmax. Particulars: mean of both orientations.

Assay [6] has as its target T6, 4H4033-AA.
T6 chain: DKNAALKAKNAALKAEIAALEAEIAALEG
Briefly: two-hybrid library CCmax.

The target of assay [7] is T7, 4H481-AA.
T7 chain: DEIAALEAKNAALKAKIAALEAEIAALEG
Briefly: two-hybrid library CCmax. The conditions noted are these: mean of both orientations.

Assay [8] deals with T8, 4H953-bA.
T8 chain: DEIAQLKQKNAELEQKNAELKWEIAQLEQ
The assay can be described thus: two-hybrid library CCNG1.

For assay [9], the target named is T9, 4H754-bA.
T9 chain: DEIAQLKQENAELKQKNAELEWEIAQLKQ
Briefly: two-hybrid library CCNG1.

The target in assay [10] is T10, 4H883-bA.
T10 chain: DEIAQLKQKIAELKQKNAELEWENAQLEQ
The assay can be described thus: two-hybrid library CCNG1.

The target in assay [11] is T11, 4H454-bA.
T11 chain: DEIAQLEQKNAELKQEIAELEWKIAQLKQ
Briefly: two-hybrid library CCNG1.

The target in assay [12] is T12, 4H717-bA.
T12 chain: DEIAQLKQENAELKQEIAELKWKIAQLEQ
Briefly: two-hybrid library CCNG1.

Assay [13] concerns the target T13, 4H918-bA.
T13 chain: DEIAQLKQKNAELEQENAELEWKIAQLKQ
The assay can be described thus: two-hybrid library CCNG1.

For assay [14], the target named is T14, 4H687-bA.
T14 chain: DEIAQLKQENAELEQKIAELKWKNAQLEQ
Briefly: two-hybrid library CCNG1.

Assay [15] addresses T15, 4H797-bA.
T15 chain: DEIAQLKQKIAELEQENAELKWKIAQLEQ
Briefly: two-hybrid library CCNG1.

In assay [16] the target is T16, 4H607-bA.
T16 chain: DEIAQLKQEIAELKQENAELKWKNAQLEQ
The assay can be described thus: two-hybrid library CCNG1.

The target in assay [17] is T17, 4H908-bA.
T17 chain: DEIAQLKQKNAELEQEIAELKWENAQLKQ
The assay can be described thus: two-hybrid library CCNG1.

Assay [18] concerns the target T18, 4H72-bA.
T18 chain: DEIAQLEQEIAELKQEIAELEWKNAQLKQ
The assay can be described thus: two-hybrid library CCNG1.

In assay [19] the target is T19, 4H568-bA.
T19 chain: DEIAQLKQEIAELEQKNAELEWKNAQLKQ
The assay can be described thus: two-hybrid library CCNG1.

The target in assay [20] is T20, 4H967-bA.
T20 chain: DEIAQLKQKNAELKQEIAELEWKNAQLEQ
The assay can be described thus: two-hybrid library CCNG1.

The target in assay [21] is T21, 4H971-AA.
T21 chain: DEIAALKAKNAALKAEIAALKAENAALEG
Briefly: two-hybrid library CCmax. The conditions noted are these: mean of both orientations.

Assay [22] concerns the target T22, 4H478-AA.
T22 chain: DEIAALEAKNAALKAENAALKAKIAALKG
Briefly: two-hybrid library CCmax. Particulars: mean of both orientations.

For assay [23], the target named is T23, 4H3920-AA.
T23 chain: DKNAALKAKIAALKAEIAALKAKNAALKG
The assay can be described thus: two-hybrid library CCmax. The conditions noted are these: mean of both orientations.

In assay [24] the target is T24, 4H3121-AA.
T24 chain: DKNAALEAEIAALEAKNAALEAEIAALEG
Briefly: two-hybrid library CCmax. Particulars: mean of both orientations.

Assay [25] deals with T25, 4H3666-AA.
T25 chain: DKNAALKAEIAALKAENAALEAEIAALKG
Briefly: two-hybrid library CCmax. The conditions noted are these: mean of both orientations.

In assay [26] the target is T26, 4H656-AA.
T26 chain: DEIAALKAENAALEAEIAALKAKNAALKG
The assay can be described thus: two-hybrid library CCmax. The conditions noted are these: mean of both orientations.

In assay [27] the target is T27, 4H3628-AA.
T27 chain: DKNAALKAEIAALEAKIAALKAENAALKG
The assay can be described thus: two-hybrid library CCmax. Particulars: mean of both orientations.

In assay [28] the target is T28, 4H3591-AA.
T28 chain: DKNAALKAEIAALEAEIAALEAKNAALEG
The assay can be described thus: two-hybrid library CCmax. The conditions noted are these: mean of both orientations.

Assay [29] has as its target T29, 4H497-AA.
T29 chain: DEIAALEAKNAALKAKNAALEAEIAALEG
The assay can be described thus: two-hybrid library CCmax. Particulars: mean of both orientations.

The target of assay [30] is T30, 4H675-AA.
T30 chain: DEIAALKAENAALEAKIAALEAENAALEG
Briefly: two-hybrid library CCmax. Particulars: mean of both orientations.

In assay [31] the target is T31, 4H428-AA.
T31 chain: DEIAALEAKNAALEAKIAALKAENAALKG
Briefly: two-hybrid library CCmax. The conditions noted are these: mean of both orientations.

Assay [32] addresses T32, 4H3417-AA.
T32 chain: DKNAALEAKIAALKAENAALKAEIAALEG
Briefly: two-hybrid library CCmax. The conditions noted are these: mean of both orientations.

For assay [33], the target named is T33, 4H3102-AA.
T33 chain: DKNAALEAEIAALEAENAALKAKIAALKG
The assay can be described thus: two-hybrid library CCmax.

Assay [34] has as its target T34, 4H3709-AA.
T34 chain: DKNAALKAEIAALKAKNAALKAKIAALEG
The assay can be described thus: two-hybrid library CCmax. Particulars: mean of both orientations.

The target of assay [35] is T35, 4H391-AA.
T35 chain: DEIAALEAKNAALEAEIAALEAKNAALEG
Briefly: two-hybrid library CCmax. Particulars: mean of both orientations.

Assay [36] deals with T36, 4H3939-AA.
T36 chain: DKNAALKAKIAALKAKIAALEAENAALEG
The assay can be described thus: two-hybrid library CCmax. The conditions noted are these: mean of both orientations.

Assay [37] addresses T37, 4H3446-AA.
T37 chain: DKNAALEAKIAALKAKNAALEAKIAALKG
The assay can be described thus: two-hybrid library CCmax. The conditions noted are these: mean of both orientations.

Assay [38] deals with T38, P9.
T38 chain: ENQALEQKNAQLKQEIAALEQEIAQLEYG
Briefly: two-hybrid library CC1.

Take DEIQQLKQEIQELKQKIQELKWENQELEQ [4H619-bN]: the values for the interaction score in [1], in assay [2] and in assay [3] were 1.24, -0.223 and -0.494, respectively.
With DKNAALKAKNAALKAEIAALEAEIAALEG [4H4033-AA], the interaction score was -1.39 in assay [4], 1.17 in assay [5], -1.66 in [6] and -1.15 in assay [7].
Turning to DEIAQLEQKNAELKQEIAELEWKIAQLKQ [4H454-bA], the interaction score in [8] was 0.62; in [9] it was -0.711; in assay [10], -0.0808; in [11], 1.86; in [12], 0.262; in assay [13] it was -0.912. Moreover, the interaction score in [14] was 1.48; in [15], -1.06; in assay [16], -0.773; in [17], -0.182; in assay [18], -0.678; in [19], -0.589. Further, in assay [20], the interaction score was -0.131.
For DKNAALEAEIAALEAENAALKAKIAALKG [4H3102-AA], the interaction score in [21] is -0.422; in assay [22] it was 1.81; in assay [23] it was -1.16; in assay [24], -0.0964; in [25], 1.73; in assay [26], 0.534. Besides, the interaction score was -0.57 in [27]; -1.16 in assay [28]; -1.18 in assay [29]; -0.00286 in assay [30]; 0.651 in assay [31]; 2.29 in [32]. For the same molecule, the interaction score is 1.69 in assay [33]; 1.43 in [34]; -0.9 in assay [35]; -1.39 in assay [36]; 0.0866 in assay [37].
In turn, ENQALEQKNAQLKQEIAALEQEIAQLEYG [P9] showed an interaction score in assay [38] of -2.32.

These data come from PMC10397247.
